For data set [1] the following is noted: side chain (imidazole of histidine; cysteine); cited from earlier work.
Another data set deals with protein kinase Akt3/PKBγ (Homo sapiens, UniProt Q9Y243). As to the kind of experiment: Fluorogenic kinase assay with Akt3/PKBγ, rate of reaction, two vs one hydrophobic moiety. The settings on record: compared with one-hydrophobic-moiety substrate C15OOOK(dye2)RPRTSSF-NH2; substrates 8 μM, Akt3/PKBγ 6 nM, ATP 100 μM (FIG. 5). The data set is classed as biochemical. As to the method:
Tet is the fluorescein dye 2′,7′,4,7-tetachloro-5-carboxy fluorescein.
(§1) Kinase assays were performed using Corning 384-well, black, non-binding surface (NBS), microwell plates. Fluorescence was read in real time using a […] Gemini XS plate reader, with excitation and emission set at 500 and 550 respectively. The plate was read every minute for one hour at ambient temperature
Concentrations of dye-labeled peptides were determined by dilution of the purified peptides into dimethylformamide (200 μL) with 1 M NaOH (5 μL) and measuring the absorbance of either 5-carboxy-2′,7′-dipyridyl-sulfonefluorescein (i.e. dye2) at its absorbance maximum (548 nm) or 2′,7′,4,7-tetachloro-5-carboxy fluorescein (i.e. 2′,7′-dichloro-5-carboxy-4,7-dichlorofluorescein or “tet”) at its absorbance maximum (541 nm). The extinction coefficient of both dyes was assumed to be 80,000 cm^−1M^−1.

Another data set deals with protein kinase p38βII (Homo sapiens, UniProt Q15759). As to the kind of experiment: Fluorogenic kinase assay with p38βII, rates at varying ATP fitted to Michaelis-Menton equation. The data set is classed as biochemical. The settings on record: p38bII 14 nM; 20 mM Tris pH 7.4, MgCl2 5 mM, DTT 5 mM; read 1 hour; read-out: apparent Km of ATP.
Sequence of protein kinase p38βII (Q15759 whole entry): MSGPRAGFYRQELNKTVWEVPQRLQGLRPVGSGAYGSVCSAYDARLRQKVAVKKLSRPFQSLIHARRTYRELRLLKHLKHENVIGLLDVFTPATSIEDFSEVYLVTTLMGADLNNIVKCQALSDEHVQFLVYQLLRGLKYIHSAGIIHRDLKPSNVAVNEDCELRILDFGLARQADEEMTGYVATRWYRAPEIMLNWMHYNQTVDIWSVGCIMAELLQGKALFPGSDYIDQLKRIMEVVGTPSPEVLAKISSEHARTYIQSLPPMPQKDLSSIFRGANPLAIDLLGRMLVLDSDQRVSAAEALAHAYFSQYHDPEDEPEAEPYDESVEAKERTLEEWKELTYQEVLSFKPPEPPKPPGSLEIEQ
Description: A comparison of the rates of reaction for a kinase substrate comprising two hydrophobic moieties (i.e. C12OOK(dye 2)RRIPLSPOOK(C12)NH2, (peptide disclosed as SEQ ID NO: 20) used at a concentration of 2 μm and referred to herein as compound 2) versus a kinase substrate comprising a single hydrophobic moiety (i.e.C16OOK(dye 2)[…]2, (peptide disclosed as SEQ ID NO: 20) used at a concentration of 4 μm; and referred to herein as compound 4) for several concentrations of ATP (0, 5, 10, 20, 50, 100, 200, and 500 μM) is shown in FIGS. 4A and 4B. […] The rates of the reaction were fitted to the Michaelis-Menton equation. […]
as §1
Concentrations of dye-labeled peptides were determined by dilution of the purified peptides into dimethylformamide (200 μL) with 1 M NaOH (5 μL) and measuring the absorbance of either 5-carboxy-2′,7′-dipyridyl-sulfonefluorescein (i.e. dye2) at its absorbance maximum (548 nm) or 2′,7′,4,7-tetachloro-5-carboxy fluorescein (i.e. 2′,7′-dichloro-5-carboxy-4,7-dichlorofluorescein or “tet”) at its absorbance maximum (541 nm). […]

Where no end group is shown, it is not given here. [ ]: non-standard residue; d: D form. K(dye 2) = not defined here; K(tet) = not defined here; Orn = NCCC[C@H](N)C(=O)O; C12 = C12 group (lipid); C11 = C11 lipid A value given as a limit tells only on which side of the number the result lay.

Sequence of protein kinase Akt3/PKBγ (Q9Y243 whole entry): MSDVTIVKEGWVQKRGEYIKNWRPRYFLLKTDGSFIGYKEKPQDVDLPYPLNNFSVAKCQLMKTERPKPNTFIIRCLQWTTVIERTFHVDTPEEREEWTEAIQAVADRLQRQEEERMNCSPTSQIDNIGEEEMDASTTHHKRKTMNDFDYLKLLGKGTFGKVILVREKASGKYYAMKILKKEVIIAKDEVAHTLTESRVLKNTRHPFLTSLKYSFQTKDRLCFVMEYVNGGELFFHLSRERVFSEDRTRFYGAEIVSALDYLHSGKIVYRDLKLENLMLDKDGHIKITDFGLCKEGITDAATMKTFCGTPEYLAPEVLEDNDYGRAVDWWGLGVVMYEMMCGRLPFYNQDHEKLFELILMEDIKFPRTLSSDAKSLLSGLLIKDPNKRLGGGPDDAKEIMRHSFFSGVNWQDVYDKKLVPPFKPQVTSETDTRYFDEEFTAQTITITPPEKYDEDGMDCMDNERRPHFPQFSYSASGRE

Turning to `N[C@@H](Cc1c[nH]cn1)C(=O)O` [Histidine (H), Histidine], the pK result in data set [1] was “about 7”.

For the molecule “C11OOK(tet)ArgProArgThrSerSerPheOOK(C11)NH2 ({C11-Orn-Orn-K(tet)}-RPRTSSF[Orn][Orn]-{K(C11)-NH2}; not fully specified; printed as C11OOK(tet)ArgProArgThrSerSerPheOOK(C11)NH2; reading uncertain) [compound 3, kinase substrate for Akt3/PKBγ with two C11 hydrophobic moieties and tet dye]”, in the data set with protein kinase Akt3/PKBγ, the “signal to noise ratio” value is reported as “improved signal to noise ratio”.

On to “C12OOK(dye 2)ArgArgIleProLeuSerProOOK(C12)NH2 ({C12-Orn-Orn-K(dye 2)}-RRIPLSP[Orn][Orn]-{K(C12)-NH2}; not fully specified; printed as C12OOK(dye 2)ArgArgIleProLeuSerProOOK(C12)NH2; reading uncertain) [compound 2, kinase substrate for p38βII with two C12 hydrophobic moieties and Dye 2]”, for which the Km (usually the substrate concentration at which the rate is half of its maximum) with protein kinase p38βII stood at 90 µM.

For “C16OOK(dye 2)RRIPLSPNH2 (RRIPLSP-NH2; not fully specified (N-terminus); printed as C16OOK(dye 2)RRIPLSPNH2) [compound 4, comparison kinase substrate with a single hydrophobic moiety]”, the Km in the data set with protein kinase p38βII was > 200 µM.

The values are drawn from patent publication US7304146B2, “Fluorogenic kinase assays and substrates” (Applera Corporation, priority 2004, dated 2007).
